Source: the supplement of paper PMC9170038

Experiments:
Conditions in all cases: FMN input: 0 or 200 uM; Eterna round: R93 (includes R88 designs)
[1] = system: MS2 coat protein; test: apparent KD of MS2 coat protein, switch OFF state (with FMN for OFF switches, without FMN for ON switches); designed switch direction (-1 OFF switch, 1 ON switch): 1; higher = weaker reporter binding
Outline: (§1)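 Normalised binding curves from single clusters were fitted, and the median fit for each design is given as apparent KD. The clusters held designed RNA switches transcribed on-chip from Illumina sequencing clusters. These were titrated with SNAP-549-labelled MS2 coat protein (twofold steps from 0.7 or 1.5 nM to 3 µM, 0.8–1.5 h to 10–20 min per step) in 100 mM Tris-HCl pH 7.5, 80 mM KCl, 4 mM MgCl2, without or with constant ligand.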

[2] = system: MS2 coat protein; test: apparent KD of MS2 coat protein, switch ON state; designed switch direction (-1 OFF switch, 1 ON switch): 1; higher = weaker reporter binding
Outline: as §1

[3] = system: MS2 coat protein; test: apparent KD of MS2 coat protein, switch OFF state (with FMN for OFF switches, without FMN for ON switches); designed switch direction (-1 OFF switch, 1 ON switch): -1; higher = weaker reporter binding
Outline: as §1

[4] = system: MS2 coat protein; test: apparent KD of MS2 coat protein, switch ON state; designed switch direction (-1 OFF switch, 1 ON switch): -1; higher = weaker reporter binding
Outline: as §1

Sequence	apparent KD of MS2 coat protein [1] [µM]	apparent KD of MS2 coat protein [2] [µM]	apparent KD of MS2 coat protein [3] [µM]	apparent KD of MS2 coat protein [4] [µM]
AAAAGACAUGAGGAUCACCCAUGUAAAAACUUGAGAGGAUAUGCUUGGAAAACAUGCUAUGCAGAAGGCUCUAGUC [SS1 - 15]	0.0263	0.018		
AUAAAGAAAAGGCAGGAUAUGUAAACUAAAACAUGAGGAUCACCCAUGUGGGAAAUAAAAUAAAAACAGAAGGGCCAAAAGAAUA [Designing denovo 17]	0.0328	0.0191		
AACAAUCUAUCUGAGGAUAUCAUGUAAAAAACAUGAGGAUCACCCAUGUGCAGGAAAACUGCAUAUGAGAAGGCAGAUAGAUUGA [SS2 :P - 600]	0.192	0.0981		
GAGGACAUAGUAUAGGAUAUAUGAAUAAUUACAUGAGGAUCACCCAUGUCCAUUUAUAUGGGAACAUAGAAGGGUGGUAGUUGUC [Mat - Same state - Malcolm Mod - D130]	0.2	0.073		
AUUCCAAAUAGUCAGGAUAUCAGAAGUAAGACAUGAGGAUCACCCAUGUACUUAGUAAAAGUAACUGAGAAGGGACAGGGUGUAA [JR_SS002_Sub405]	0.0161	0.0174		
GGGAGGAAGAGAGAGGAUAUCCAAAGGAAAACAUGAGGAUCACCCAUGUAAAAGGUAGGAAAUUGGGAGAAGGCUCAAGAGAAAG [salish99-ss2-054]	0.0516	0.0298		
AACAAUCUAUCUGAGGAUAUCAUGUAAAAAACAUGAGGAUCACCCAUGUCUAGGAAAACUAGAUAUGAGAAGGCAGAUAGAUUGA [SS1 - 596]	0.0861	0.11		
AACAAUCUAUCUGAGGAUAUAUGUCGAAAGACAUGAGGAUCACCCAUGUGAAAACAUGAAAAAUAAUAGAAGGCAGAUAGAUUGA [SS2: 1141]	0.413	0.0805		
GGCCAACAUGAGGAUCACCCAUGUCGCCAAAAUCGAGGAUAUGGGUGCCAGCUCGGGCAGCCAGAAGGCGACAAAA [Qutiqumais]	0.224	0.0551		
AUAAAACAUGAGGAUCACCCAUGUAGAAAUAUGGGAGGAUAUACAAAGACGAAAGUCAAAGUAGAAGGCCUAAAAG [Mod of Meechl's design Meechl MS2 SS1 2]	0.0662	0.024		
UCCUUACAUGAGGAUCACCCAUGUCGCAGGAAUCAAGGAUAUGGGUCCGCAAUGCGGAAACCAGAAGGUGACAAAA [Edusquanon]	0.489	0.165		
AAUAUACAUGAGGAUCACCCAUGUUAGGUGGGACUAGGAUAUCAAAAUAAAUAAAGAACAUGAGAAGGAGUAUCAA [JR_SS001_Sub401]	0.152	0.0945		
AUAAUAUUAAGCAAGGAUAUACUAAAGUAAACAUGAGGAUCACCCAUGUAAAAAAAAAAACUCAUGUAGAAGGUGCAUAAAUAAA [moonwalk 10]	0.0331	0.00892		
AACAAUCUAUCUGAGGAUAUCAUGUCAAAGACAUGAGGAUCACCCAUGUCCAGGAAAACUGGAUAUGAGAAGGCAGAUAGAUUGA [SS2: 1105]	3.31	0.179		
AAGAAAGUUUACGAGGAUAUGUUCCGCAGAACAUGAGGAUCACCCAUGUGAACAAGAAAGGCGACGCAGAAGGCGUGAGCUAUGA [Anesdien]	0.106	0.0327		
AGGAAACAUGAGGAUCACCCAUGUAAAAAUAUGGGAGGAUAUACAAACAGGAAAGAGAGAGUAGAAGGCCUAAAAG [Garnet 20]	0.0418	0.0729		
AUAAAACAUGAGGAUCACCCAUGUAAAAAAGCAUGAGGAUAUAUAAAAAGAAAAAGAAGAAUAGAAGGCAUAAUAA [JR_SS001_Sub1223]	0.0505	0.0607		
UUACAGCACAGGUAGGAUAUGUAGGGUGGUACAUGAGGAUCACCCAUGUAUCCACCCUUCGAAAGGCAGAAGGGCCUGUCGCUGC [Arsora]	0.0168	0.0246		
GUAUAUAUAAGACAGGAUAUCCUAAAGUAAACAUGAGGAUCACCCAUGUAAAGAAAGAAACUCAUGGAGAAGGGUCAAUAUAUAC [Mat - Same State 2 - Tesla mod - D82]	0.0271	0.0115		
AAGAAACAUGAGGAUCACCCAUGUAAAUUUAAGAGAGGAUAUCGUACAUGGAAGAUUUAACGAGAAGGCUCUAGAA [Pariah 2 (MS2 Riboswitches - Same State 1)]	0.0369			
CUCAAGUGAGGAUAUCAGUAGUAAAAAAAUAAAAUUACUACUGAGAAGGCACAUGAGGAUCACCCAUGUGCAAA [EX4 336: Super Stable 36]			0.017	0.0196

Sequence	apparent KD of MS2 coat protein [1] [µM]	apparent KD of MS2 coat protein [2] [µM]	apparent KD of MS2 coat protein [3] [µM]	apparent KD of MS2 coat protein [4] [µM]
GAAAGUGGAGGAUAUACAUGAGGAUCACCCAUGUGUAAAAAUAAAUACACAAAAGAAAGUAGAAGGCCACAAAG [Mat - Exclusion 3 - Mayanna mod - D118]			0.125	0.0306
AGGGAACAUGAGGAUCACCCAUGUGAGGAUAUUCAAAAGAAAAGAAAAGAAAGAAGAAGAAGAAGGUACAAGAA [Neferkare Pepi II]			0.0369	0.0429
AUAGUACAUGAGGAUCACCCAUGUCAGGAUAUUGGAUAUGACAUGAAAAAAAUGUUAACGAGAAGGGACUAUAA [EX1 Malc#17]			0.0807	0.0586
AAAAAACAUGAGGAUCACCCAUGUCAGGAUAUGCUCAGCAAUAUUCCAAUAAAGAACGGUAGAAGGGACAGGAA [Bilbo Confounded 24 - Jieux - Exclusion 1]			0.0266	0.0249
AAAAAACAUGAGGAUCACCCAUGUCAGGAUAUCGUAAAAAAAAAAAAAAAAAAAAAUGCGAGAAGGGACUGGAA [exclusion1-cac2]			0.0945	0.0869
AAAAAACAUGAGGAUCACCCAUGUCAGGAUAUGCUCAACAAUAUUCCAAAAAAGAACGGUAGAAGGGACAGGAA [Bilbo Confounded 25 - Jieux - Exclusion 1]			0.0223	0.0304
AGGAAACAUGAGGAUCACCCAUGUUAGGAUAUGAACGAAAAUAAAUAAAAAUAAAAGUUCAGAAGGGACAAAAA [66%, Wbt, 19]			0.0396	0.0384
AAAAAGUCAGGAUAUGCGAAGGCGUCUGAUAGACGAGGCUAGCAGAAGGGACAUGAGGAUCACCCAUGUGAAAA [Mat - Mod of Nando 64% 1]			0.143	0.0579
AAAAAGUUAGGAUAUACAUGAGGAUCACCCAUGUGCACAUAUGGAGAAUAUGGUAGUAGUAGAAGGGACAAAAA [EX2 Malc#16]			0.0333	0.0303
CUCAAGUAAGGAUAUGGAAGAAAAGAAGAGAAAGAAAAGAACCAGAAGGUACAUGAGGAUCACCCAUGUAAGAA [EteRNA is fun!]			0.0246	0.0372
AUAGGCCUAGGAUAUACAUGAGGAUCACCCAUGUUAAUAUUUCAAACAUGAUAAACGUGUAGAAGGAGGAAUAA [JR_Exc003_Sub303]			0.0508	0.0417
UUAGAACAUGAGGAUCACCCAUGUGAGGAUAUGCAAUACUAGCGACAAGAUCGUUAUAGCAGAAGGCACGUAGU [JR_EXc001_Sub807]			0.0645	0.0386
GCUGUGGAAGGAUAUACAUGAGGAUCACCCAUGUGAGAGAAAAAAGUGAGAAAGAAAAGUAGAAGGUCCGUAGG [salish99-ex3-98]			0.066	0.0403
CUCAUGUCAGGAUAUCAGUAGUAAAAAAAUAAAAUUACUACUGAGAAGGGACAUGAGGAUCACCCAUGUAAAAA [EX4 363: Super Stable 63]			0.0232	0.0161
AGCUAGUCAGGAUAUACGAACAGGUCAAAAGACGUAAGGGAACAUGAGGAUCACCCAUGUAGAAGGGACUAGCA [Diamond 52]			0.0843	0.0329
GAAAAGUCAGGAUAUGUACAAAAUAAAAUAAAAAUAAAAGUACAGAAGGGACAUGAGGAUCACCCAUGUAAAAA [Mat - Exclusion 4 - Mayanna - D119]			0.0498	0.0473
CAUAAACAUGAGGAUCACCCAUGUGAGGAUAUGAUAUUACUAGGACGGCUGUAAUCAAUCAGAAGGCACAUCAA [JR_Exc--1_Sub1206]			0.0415	0.0225
AACAGUACAGGAUAUACAUGAGGAUCACCCAUGUGAGUUUUAAAAGGCGUACCUAAAAGUAGAAGGGUACUGGA [JL Maslow Revisted mod 20]			0.0442	0.0243
GAAAAGGCAGGAUAUGCAGGAUAUAGAAGGAGGAUAUAGAGACAUGAGGAUCACCCAUGUAGAAGGGCCAAAAG [salish99-ex2-11]			0.0323	0.0426
AUGUAGGGAGGAUAUACAUAGAUACAGAUUCGUGUAGAACUACAUGAGGAUCACCCAUGUAGAAGGCCCUAAAA [Mat - Same state - Mayanna Mod - D124]			0.0431	0.0201
AACAGUACAGGAUAUACAUGAGGAUCACCCAUGUGAAGAUUAAGUGGAGUACCACAAAGUAGAAGGGUACUGGA [Ruby 89]			0.101	0.0281
